# Key:
# [1] = system: T. fusca Type I-E CRISPR-Cas (Cascade) effector complex
# [2] = target: Cascade lacking the Cse1 subunit (T. fusca); test: EMSA, target DNA with a changed PAM and a mismatch at position +1
# [3] = target: Cascade lacking the Cse1 subunit (T. fusca); test: EMSA, target DNA with a mismatch to the crRNA at position +1
percent of Cascade complexes converted to the faster-migrating species (Cascade lacking Cse1) [2] [%],percent of Cascade complexes converted to the faster-migrating species (Cascade lacking Cse1) [3] [%],Substance,Cas3 nuclease activity [1]
–,–,T. fusca Cas3,impaired Cas3 recruitment also reduced Cas3 nuclease activity when ATP and Co^+2 were added to the reaction mixtures
100,80,free Cse1 (T. fusca),–
